This data set can be described thus: self-splicing fitness, log relative to wild type (ln ratio); higher = more splicing; Tetrahymena group I intron in knt gene, E. coli kanamycin selection, DiMSum; sequences stand for … in CUCUCU…GGAGGGAAAAGUUAUCAGGCAUGCACCUGGUAGCUAGUCUUUAAACCAAUAGAUUGCAUCGGUUUAAAAGGCAAGACCGUCAAAUUGCGGGAAAGGGGUCAACAGCCGUUCAGUACCAAGUCUCAGGGGAAACUUUGAGAUGGCCUUGCAAAGGGUAUGGUAAUAAGCUGACGGACAUGGUCCUAACCACGCAGCCAAGUCCUAAGUCAACAGAUCUUCUGUUGAUAUGGAUGCAGUUCACAGACUAAAUGUCGGUCGGGGAAGAUGUAUUCUUCUCAUAAGAUAUAGUCGGACCUCUCCUUAAUGGGAGCUAGCGGAUGAAGUGAUGCAACACUGGAGCCGCUGGGAACUAAUUUGUAUGCGAAAGUAUAUUGAUUAGUUUUGGAGUACUCGUGGUCG
A digest of the protocol: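 The eight P1ex-region nucleotides of an intron in the knt kanamycin-resistance gene on pET-22b(+) were all randomised and the library put into E. coli BL21(DE3). Six replicate transformations were grown overnight at 37°C or 30°C on LB agar with or without 25 μg/mL kanamycin, together with 100 μg/mL carbenicillin, 50 μM IPTG and 0.2% rhamnose. Colonies were pooled and amplicon-sequenced on an Illumina HiSeq 2500. Fitness from DiMSum is the error-weighted combination of wild-type-normalised replicate fold changes, kanamycin over none.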

± gives the uncertainty stated by the source.

With GAUCAGCAAUAUUACGUAUG, the “self-splicing fitness (ln)” value reads like this: (30 °C) -0.935 ± 0.084; (37 °C) -0.276 ± 0.097.
On the same counts, the results for GAUCAGCAAUAUUACGUGAC are -1.62 ± 0.094 and -1.63 ± 0.12.
Regarding GAUCAGCAAUAUUACGUGCU, the “self-splicing fitness (ln)” value (30 °C) is -3.41 ± 0.15 and the “self-splicing fitness (ln)” value (37 °C) was -2.2 ± 0.16.
On to GAUCAGCAAUAUUACGUGGU, for which the “self-splicing fitness (ln)” value is, setting by setting: (30 °C) -4.81 ± 0.27; (37 °C) -2.15 ± 0.13.
The corresponding values for GAUCAGCAAUAUUACGUGUC are -2.74 ± 0.11 and -2.19 ± 0.17.
For the sequence GAUCAGCAAUAUUACGUUAA, the “self-splicing fitness (ln)” value runs as follows: (30 °C) -1.23 ± 0.076; (37 °C) -0.776 ± 0.084.
The corresponding values for GAUGAGCAAUAUUACGAAUG are -2.71 ± 0.21 and -2.67 ± 0.34.
The corresponding values for GAUGAGCAAUAUUACGACCA are -3.85 ± 0.35 and -3.8 ± 0.39.
The corresponding values for GAUGAGCAAUAUUACGCAUC are -2.56 ± 0.25 and -2.32 ± 0.28.
On to GAUGAGCAAUAUUACGCCAU, for which the “self-splicing fitness (ln)” value (30 °C) is -2.56 ± 0.14.
GAUGAGCAAUAUUACGCGUA: the “self-splicing fitness (ln)” value by setting is: (30 °C) -1.96 ± 0.29; (37 °C) -1.85 ± 0.33.
On the same counts, the results for GAUGAGCAAUAUUACGGAUC are -2.36 ± 0.23 and -1.78 ± 0.19.
Consider GAUGAGCAAUAUUACGGCUU, for which the “self-splicing fitness (ln)” value (30 °C) was -2.34 ± 0.14 and the “self-splicing fitness (ln)” value (37 °C) was -1.12 ± 0.14.
For GAUGAGCAAUAUUACGGGAC, the “self-splicing fitness (ln)” value (37 °C) is -3.23 ± 0.4.
With GAUGAGCAAUAUUACGGGGG, the “self-splicing fitness (ln)” value was -4.46 ± 0.34 (30 °C) and -1.44 ± 0.25 (37 °C).
With GAUGAGCAAUAUUACGUAUU, the “self-splicing fitness (ln)” value by setting is: (30 °C) -3.83 ± 0.34; (37 °C) -3.78 ± 0.36.
For GAUUAGCAAUAUUACGAAUC, the “self-splicing fitness (ln)” value (30 °C) was -4.13 ± 0.37 and the “self-splicing fitness (ln)” value (37 °C) is -1.82 ± 0.31.
The corresponding values for GAUUAGCAAUAUUACGACCC are -0.91 ± 0.24 and 0.12 ± 0.24.
On the same counts, the results for GAUUAGCAAUAUUACGAGCC are -0.73 ± 0.31 and -1.4 ± 0.38.
On the same counts, the results for GAUUAGCAAUAUUACGAUCU are -0.776 ± 0.2 and -2.2 ± 0.38.
Turning to GAUUAGCAAUAUUACGCAAA, the “self-splicing fitness (ln)” value by setting is: (30 °C) -2.19 ± 0.18; (37 °C) -2.24 ± 0.19.
The corresponding values for GAUUAGCAAUAUUACGCCCC are -1.52 ± 0.46 and -0.314 ± 0.48.
The corresponding values for GAUUAGCAAUAUUACGCCGC are -3.47 ± 0.24 and -2.28 ± 0.21.
For the sequence GAUUAGCAAUAUUACGCCGG, the “self-splicing fitness (ln)” value is -2.88 ± 0.45 (30 °C) and -1.96 ± 0.41 (37 °C).
On the same counts, the results for GAUUAGCAAUAUUACGCGGG are -2.31 ± 0.12 and -2.53 ± 0.18.
On the same counts, the results for GAUUAGCAAUAUUACGCGGU are -3.5 ± 0.47 and -3.43 ± 0.33.
The corresponding values for GAUUAGCAAUAUUACGCGUG are -1.23 ± 0.091 and 0.595 ± 0.11.
Take GAUUAGCAAUAUUACGCUAG: the “self-splicing fitness (ln)” value by setting is: (30 °C) -1.95 ± 0.17; (37 °C) -0.989 ± 0.15.
For the sequence GAUUAGCAAUAUUACGCUAU, the “self-splicing fitness (ln)” value (30 °C) is -2.97 ± 0.41.
In the case of GAUUAGCAAUAUUACGCUGA, the “self-splicing fitness (ln)” value is -3.17 ± 0.23 (30 °C) and -2.53 ± 0.27 (37 °C).
Turning to GAUUAGCAAUAUUACGCUGG, the “self-splicing fitness (ln)” value is, setting by setting: (30 °C) -1.73 ± 0.14; (37 °C) -1.68 ± 0.22.
GAUUAGCAAUAUUACGCUUU: the “self-splicing fitness (ln)” value was -2.1 ± 0.46 (30 °C) and -1.9 ± 0.33 (37 °C).
The corresponding values for GAUUAGCAAUAUUACGUAAU are -3.06 ± 0.18 and -0.741 ± 0.12.
As for GAUUAGCAAUAUUACGUAUC, the “self-splicing fitness (ln)” value (37 °C) is -2.77 ± 0.36.
For the sequence GAUUAGCAAUAUUACGUCAU, the “self-splicing fitness (ln)” value was -2.76 ± 0.24 (30 °C) and -1.79 ± 0.36 (37 °C).
Consider GAUUAGCAAUAUUACGUGGG, for which the “self-splicing fitness (ln)” value (30 °C) is -3.52 ± 0.32 and the “self-splicing fitness (ln)” value (37 °C) is -2.47 ± 0.27.
Regarding GAUUAGCAAUAUUACGUUUA, the “self-splicing fitness (ln)” value by setting is: (30 °C) -2.9 ± 0.25; (37 °C) -1.05 ± 0.15.
The corresponding values for GCAAAGCAAUAUUACGACGC are -1.27 ± 0.082 and -1.2 ± 0.11.
Regarding GCAAAGCAAUAUUACGAGGC, the “self-splicing fitness (ln)” value is -3.55 ± 0.34 (30 °C) and -2.77 ± 0.4 (37 °C).

These data come from the supplement of paper PMC7877785.
